# Laboratory results as given in article PMC7891396.
# Target: Int^C-eGFP-H6 with the C124A and N146A mutations (construct 9), inactivated C-terminal precursor of the AceL NrdHF split intein (not stated (metagenomic contig from the Antarctic Ace Lake, might originate from a bacteriophage))
# Test: MST; Monolith NT.115; 9 at 8.8 nM (eGFP as fluorophore), 1 in a dilution series from 2500 to 0.61 nM; BSA 0.05 % (w/v) and Tween-20 0.1 % (v/v) added; 20 % MST power, 20 % blue LED; four parametric sigmoidal fit
substance,measurement,value
"MBP-Int^N-H6 (1), N-terminal precursor of the AceL NrdHF split intein (domain or fragment)",Kd,82.2 nM
